B1: ALDHTt (Thermus thermophilus HB27) (protein)
chain: MRKAAGKYGNTLEFGHLVGGEEVLEGPLLERRNPSDREDVVARFPEADKDLVRKAALKAREAFAEWSRTPAPIRGQVLFNLVKILEREKPTLTRLMVREVGKTPKEAAGDVQEAIDTALFFASEGRRLYGQTVPSEMRDKELFTFRRPLGVVGIITAGNFPIAVPSWKLIPAVLTGNTVVWKPSEDAPTLSFVFAKLFEEAGLPPGVLNVVFGGGKGSTGQWMVELMDEGLFQKFAFTGSTQVGRWIGEVAGRNLIRPTLELGGKNPLVVMRDADLDLAVEGAWWSAFATGGQRCTSAGNILVDAPIYEEFKRRFLERVEATLVGNPLLHPEVTYGPFINERFFARWQEHYRVGEAEGARLLFGRGRITRENPYPRFLGDPEAGLYGWPTVWEVRPGTRLFTEEVFGPTINLVKVDGIEEAIAVANSTPYGLSSAIYTNHRHWAYLFKVGIRAGMTSINNATVGAEAHLPFGGVKASGNGGRESGIWVLEEYTYWHAVNEEYSGRLQLAQMDTGYVSPKAPTPWGEVLGL
notes: full-length, his-tagged (pET-22b(+)-ALDHTt), E. coli BL21(DE3); homotetramer with C-terminal tail

Assays:
[1] = molecular target: ALDHTt, aldehyde dehydrogenase from Thermus thermophilus (Thermus thermophilus); assay: SEC; HiLoad 16/60 Superdex 200 pg, 50 mM Tris-HCl pH 7.5, 5 mM β-mercaptoethanol, 150 mM NaCl, flow rate 1 mL/min; last step of the purification; no calibration told
[2] = substrate: CCCCCC=O; assay: purified protein; conditions: 2 mM NAD+, 10 mM potassium phosphate pH 8, 50 °C
[3] = substrate: NC(=O)c1ccc[n+]([C@@H]2O[C@H](COP(=O)(O)OP(=O)(O)OC[C@H]3O[C@@H](n4cnc5c(N)ncnc54)[C@H](O)[C@@H]3O)[C@@H](O)[C@H]2O)c1; assay: purified protein; format: biochemical, Thermus thermophilus; conditions: 2 mM hexanal, 10 mM potassium phosphate pH 8, 50 °C, varied: cofactor
[4] = substrate: O=Cc1ccc(C=O)cc1; assay: purified protein; format: biochemical, Thermus thermophilus; conditions: 2 mM NAD+, 10 mM potassium phosphate pH 8, 50 °C
[5] = substrate: O=Cc1ccccc1; assay: purified protein; format: biochemical, Thermus thermophilus; conditions: 2 mM NAD+, 10 mM potassium phosphate pH 8, 50 °C

| Molecule | stoichiometry N [1] | Km [2] [µM] | Vmax [2] [µmol/min] | kcat [2] [s⁻¹] | Km [3] [µM] | Km [4] [µM] | Vmax [4] [µmol/min] | kcat [4] [s⁻¹] | Km [5] [µM] | Vmax [5] [µmol/min] | kcat [5] [s⁻¹] |
| --- | --- | --- | --- | --- | --- | --- | --- | --- | --- | --- | --- |
| ALDHTt, aldehyde dehydrogenase from Thermus thermophilus (enzyme) | 4 | – | – | – | – | – | – | – | – | – | – |
| B1 | – | 990 ± 240 | 0.027 | 5.71 | 9.2 | 380 ± 110 | 0.047 | 12.1 ± 2.5 | 1520 ± 510 | 0.0057 | 1.46 ± 0.29 |
